{
  "source": "patent US20050064507",
  "proteins": {"B1": {"name": "PKC-zeta (protein)", "chain": "MPSRTGPKMEGSGGRVRLKAHYGGDIFITSVDAATTFEELCEEVRDMCRLHQQHPLTLKWVDSEGDPCTVSSQMELEEAFRLARQCRDEGLIIHVFPSTPEQPGLPCPGEDKSIYRRGARRWRKLYRANGHLFQAKRFNRRAYCGQCSERIWGLARQGYRCINCKLLVHKRCHGLVPLTCRKHMDSVMPSQEPPVDDKNEDADLPSEETDGIAYISSSRKHDSIKDDSEDLKPVIDGMDGIKISQGLGLQDFDLIRVIGRGSYAKVLLVRLKKNDQIYAMKVVKKELVHDDEDIDWVQTEKHVFEQASSNPFLVGLHSCFQTTSRLFLVIEYVNGGDLMFHMQRQRKLPEEHARFYAAEICIALNFLHERGIIYRDLKLDNVLLDADGHIKLTDYGMCKEGLGPGDTTSTFCGTPNYIAPEILRGEEYGFSVDWWALGVLMFEMMAGRSPFDIITDNPDMNTEDYLFQVILEKPIRIPRFLSVKASHVLKGFLNKDPKERLGCRPQTGFSDIKSHAFFRSIDWDLLEKKQALPPFQPQITDDYGLDNFDTQFTSEPVQLTPDDEDAIKRIDQSEFEGFEYINPLLLSTEESV"}},
  "key": {"[1]": {"biological_target": "T1, KCNH2 peptide RQRKRKLSFRRRTDKD (SEQ ID NO:86) (not fully specified)", "T1 chain": "RQRKRKLSFRRRTDKD"}, "[2]": {"biological_target": "T2, CREB1 peptide EILSRRPSYRKILND (SEQ ID NO:106) (not fully specified)", "T2 chain": "EILSRRPSYRKILND"}, "[3]": {"biological_target": "T3, MLK3 peptide HVRRRRGTFKRSKLRARD (SEQ ID NO:76) (not fully specified)", "T3 chain": "HVRRRRGTFKRSKLRARD"}, "[4]": {"biological_target": "T4, M1 muscarinic receptor peptide RWDKRRWRKIPKRPGSVHRT (SEQ ID NO:155) (not fully specified)", "T4 chain": "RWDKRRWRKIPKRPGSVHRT"}, "[5]": {"biological_target": "T5, PARIS1 peptide EYLERRASRRRAV (SEQ ID NO:89) (not fully specified)", "T5 chain": "EYLERRASRRRAV"}, "[6]": {"biological_target": "T6, NF1 peptide AGSFKRNSIKKIV (SEQ ID NO:102) (not fully specified)", "T6 chain": "AGSFKRNSIKKIV"}, "[7]": {"biological_target": "T7, GABRB2 peptide QKKSRLRRRASQLKI (SEQ ID NO:84) (not fully specified)", "T7 chain": "QKKSRLRRRASQLKI"}, "[8]": {"biological_target": "T8, dag kinase zeta peptide KKKKRASFKRKSSKKG (SEQ ID NO:114) (not fully specified)", "T8 chain": "KKKKRASFKRKSSKKG"}, "[9]": {"biological_target": "T9, LIMK2 peptide KATTKKRTLRKNDRK (SEQ ID NO:108) (not fully specified)", "T9 chain": "KATTKKRTLRKNDRK"}, "[10]": {"biological_target": "T10, ERN1 peptide KLAVGRHSFSRRSGV (SEQ ID NO:94) (not fully specified)", "T10 chain": "KLAVGRHSFSRRSGV"}, "[11]": {"biological_target": "T11, cytohesin-2 peptide VDPFYEMLAARKKRISVKKK (SEQ ID NO:150) (not fully specified)", "T11 chain": "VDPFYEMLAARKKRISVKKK"}, "[12]": {"biological_target": "T12, pleckstrin 1 peptide KAIKAIEGGQKFARKSTRRS (SEQ ID NO:126) (not fully specified)", "T12 chain": "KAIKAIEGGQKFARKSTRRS"}, "[13]": {"biological_target": "T13, DGKI peptide NRKKKRTSFKRKA (SEQ ID NO:79) (not fully specified)", "T13 chain": "NRKKKRTSFKRKA"}, "[14]": {"biological_target": "T14, ERN1 peptide ISDFGLAKKLAVGRHSFSRR (SEQ ID NO:145) (not fully specified)", "T14 chain": "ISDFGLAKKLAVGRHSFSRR"}, "[15]": {"biological_target": "T15, NF1 peptide SQVQKQRSAGSFKRNSIKKI (SEQ ID NO:127) (not fully specified)", "T15 chain": "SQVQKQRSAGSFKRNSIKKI"}, "[16]": {"biological_target": "T16, PKD1 peptide RVVQSVKHTKRKSSTVMK (SEQ ID NO:149) (not fully specified)", "T16 chain": "RVVQSVKHTKRKSSTVMK"}, "[17]": {"biological_target": "T17, beta adducin peptide PSKSPSKKKKKFRTPSFLKK (SEQ ID NO:137) (not fully specified)", "T17 chain": "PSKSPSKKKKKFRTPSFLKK"}, "[18]": {"biological_target": "T18, ARHGAP4 peptide AGPLRKSSLKKGGRL (SEQ ID NO:98) (not fully specified)", "T18 chain": "AGPLRKSSLKKGGRL"}, "[19]": {"biological_target": "T19, LIMK-2 peptide LRRRSLRRSNSISKSPGP (SEQ ID NO:121) (not fully specified)", "T19 chain": "LRRRSLRRSNSISKSPGP"}, "[20]": {"biological_target": "T20, NMDAR1 peptide RAITSTLASSFKRRR (SEQ ID NO:122) (not fully specified)", "T20 chain": "RAITSTLASSFKRRR"}, "[21]": {"biological_target": "T21, ubiquitin specific protease 8 peptide RARRDSLKKIEIW (SEQ ID NO:136) (not fully specified)", "T21 chain": "RARRDSLKKIEIW"}, "[22]": {"biological_target": "T22, beta adducin peptide KKKFRTPSFLKKSKK (SEQ ID NO:135) (not fully specified)", "T22 chain": "KKKFRTPSFLKKSKK"}, "[23]": {"biological_target": "T23, SDPR peptide EKIKRSSLKKVDSLKK (SEQ ID NO:104) (not fully specified)", "T23 chain": "EKIKRSSLKKVDSLKK"}, "[24]": {"biological_target": "T24, calcium channel, voltage-dependent, L type, alpha peptide RDIRQSPKRGFLRSASLGRR (SEQ ID NO:147) (not fully specified)", "T24 chain": "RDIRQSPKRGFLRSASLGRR"}, "[25]": {"biological_target": "T25, ankyrin R peptide DLIEGRKGAQIVKRASLKRG (SEQ ID NO:152) (not fully specified)", "T25 chain": "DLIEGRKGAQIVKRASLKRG"}, "[26]": {"biological_target": "T26, PRKCM peptide VHYTSKDTLRKRHYWR (SEQ ID NO:91) (not fully specified)", "T26 chain": "VHYTSKDTLRKRHYWR"}, "[27]": {"biological_target": "T27, NR4A3 peptide KEVVRTDSLKGRRGR (SEQ ID NO:109) (not fully specified)", "T27 chain": "KEVVRTDSLKGRRGR"}, "[28]": {"biological_target": "T28, kinesin 3C peptide LEKRGMLGKRPRRKSSRRKK (SEQ ID NO:133) (not fully specified)", "T28 chain": "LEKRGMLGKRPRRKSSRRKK"}, "[29]": {"biological_target": "T29, ribosomal protein S6 peptide AKRRRLSSLRASTSK (SEQ ID NO:120) (not fully specified)", "T29 chain": "AKRRRLSSLRASTSK"}, "[30]": {"biological_target": "T30, PARIS1 peptide EYLERRASRRRAV (SEQ ID NO:138) (not fully specified)", "T30 chain": "EYLERRASRRRAV"}, "[31]": {"biological_target": "T31, HERG peptide TELEGGFSRQRKRKLSFRRR (SEQ ID NO:140) (not fully specified)", "T31 chain": "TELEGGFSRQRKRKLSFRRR"}},
  "data": [
    {"protein": "B1", "values": [
      {"measurement": "in vitro phosphorylation (% of best substrate)", "setting": "[1]", "result": 28},
      {"measurement": "in vitro phosphorylation (% of best substrate)", "setting": "[2]", "result": 15},
      {"measurement": "in vitro phosphorylation (% of best substrate)", "setting": "[3]", "result": 41},
      {"measurement": "in vitro phosphorylation, 1 uM peptide (% of best substrate)", "setting": "[4]", "result": 19},
      {"measurement": "in vitro phosphorylation, 10 uM peptide (% of best substrate)", "setting": "[4]", "result": 6},
      {"measurement": "in vitro phosphorylation (% of best substrate)", "setting": "[5]", "result": 14},
      {"measurement": "in vitro phosphorylation (% of best substrate)", "setting": "[6]", "result": 2},
      {"measurement": "in vitro phosphorylation (% of best substrate)", "setting": "[7]", "result": 19},
      {"measurement": "in vitro phosphorylation, 1 uM peptide (% of best substrate)", "setting": "[8]", "result": 45},
      {"measurement": "in vitro phosphorylation, 10 uM peptide (% of best substrate)", "setting": "[8]", "result": 51},
      {"measurement": "in vitro phosphorylation (% of best substrate)", "setting": "[9]", "result": 1},
      {"measurement": "in vitro phosphorylation (% of best substrate)", "setting": "[10]", "result": 10},
      {"measurement": "in vitro phosphorylation, 1 uM peptide (% of best substrate)", "setting": "[11]", "result": 3},
      {"measurement": "in vitro phosphorylation, 10 uM peptide (% of best substrate)", "setting": "[11]", "result": 6},
      {"measurement": "in vitro phosphorylation, 1 uM peptide (% of best substrate)", "setting": "[12]", "result": 46},
      {"measurement": "in vitro phosphorylation, 10 uM peptide (% of best substrate)", "setting": "[12]", "result": 56},
      {"measurement": "in vitro phosphorylation (% of best substrate)", "setting": "[13]", "result": 18},
      {"measurement": "in vitro phosphorylation, 1 uM peptide (% of best substrate)", "setting": "[14]", "result": 25},
      {"measurement": "in vitro phosphorylation, 10 uM peptide (% of best substrate)", "setting": "[14]", "result": 61},
      {"measurement": "in vitro phosphorylation, 1 uM peptide (% of best substrate)", "setting": "[15]", "result": 19},
      {"measurement": "in vitro phosphorylation, 10 uM peptide (% of best substrate)", "setting": "[15]", "result": 19},
      {"measurement": "in vitro phosphorylation, 1 uM peptide (% of best substrate)", "setting": "[16]", "result": 3},
      {"measurement": "in vitro phosphorylation, 10 uM peptide (% of best substrate)", "setting": "[16]", "result": 5},
      {"measurement": "in vitro phosphorylation, 1 uM peptide (% of best substrate)", "setting": "[17]", "result": 4},
      {"measurement": "in vitro phosphorylation, 10 uM peptide (% of best substrate)", "setting": "[17]", "result": 5},
      {"measurement": "in vitro phosphorylation (% of best substrate)", "setting": "[18]", "result": 4},
      {"measurement": "in vitro phosphorylation, 1 uM peptide (% of best substrate)", "setting": "[19]", "result": 60},
      {"measurement": "in vitro phosphorylation, 10 uM peptide (% of best substrate)", "setting": "[19]", "result": 56},
      {"measurement": "in vitro phosphorylation, 1 uM peptide (% of best substrate)", "setting": "[20]", "result": 20},
      {"measurement": "in vitro phosphorylation, 10 uM peptide (% of best substrate)", "setting": "[20]", "result": 17},
      {"measurement": "in vitro phosphorylation, 1 uM peptide (% of best substrate)", "setting": "[21]", "result": 6},
      {"measurement": "in vitro phosphorylation, 10 uM peptide (% of best substrate)", "setting": "[21]", "result": 9},
      {"measurement": "in vitro phosphorylation, 1 uM peptide (% of best substrate)", "setting": "[22]", "result": 11},
      {"measurement": "in vitro phosphorylation, 10 uM peptide (% of best substrate)", "setting": "[22]", "result": 13},
      {"measurement": "in vitro phosphorylation (% of best substrate)", "setting": "[23]", "result": 3},
      {"measurement": "in vitro phosphorylation, 1 uM peptide (% of best substrate)", "setting": "[24]", "result": 28},
      {"measurement": "in vitro phosphorylation, 10 uM peptide (% of best substrate)", "setting": "[24]", "result": 34},
      {"measurement": "in vitro phosphorylation, 1 uM peptide (% of best substrate)", "setting": "[25]", "result": 4},
      {"measurement": "in vitro phosphorylation, 10 uM peptide (% of best substrate)", "setting": "[25]", "result": 9},
      {"measurement": "in vitro phosphorylation (% of best substrate)", "setting": "[26]", "result": 12},
      {"measurement": "in vitro phosphorylation (% of best substrate)", "setting": "[27]", "result": 2},
      {"measurement": "in vitro phosphorylation, 1 uM peptide (% of best substrate)", "setting": "[28]", "result": 27},
      {"measurement": "in vitro phosphorylation, 10 uM peptide (% of best substrate)", "setting": "[28]", "result": 30},
      {"measurement": "in vitro phosphorylation, 1 uM peptide (% of best substrate)", "setting": "[29]", "result": 43},
      {"measurement": "in vitro phosphorylation, 10 uM peptide (% of best substrate)", "setting": "[29]", "result": 34},
      {"measurement": "in vitro phosphorylation, 1 uM peptide (% of best substrate)", "setting": "[30]", "result": 31},
      {"measurement": "in vitro phosphorylation, 10 uM peptide (% of best substrate)", "setting": "[30]", "result": 61},
      {"measurement": "in vitro phosphorylation, 1 uM peptide (% of best substrate)", "setting": "[31]", "result": 24},
      {"measurement": "in vitro phosphorylation, 10 uM peptide (% of best substrate)", "setting": "[31]", "result": 49}
    ]}
  ]
}
